# Results as given in article doi:10.1101/2023.02.23.529646 (bioRxiv, 2023).
# T1: ACAD9_(S191A) (human, UniProt Q9H845 38-621, S191A)
# T1 sequence: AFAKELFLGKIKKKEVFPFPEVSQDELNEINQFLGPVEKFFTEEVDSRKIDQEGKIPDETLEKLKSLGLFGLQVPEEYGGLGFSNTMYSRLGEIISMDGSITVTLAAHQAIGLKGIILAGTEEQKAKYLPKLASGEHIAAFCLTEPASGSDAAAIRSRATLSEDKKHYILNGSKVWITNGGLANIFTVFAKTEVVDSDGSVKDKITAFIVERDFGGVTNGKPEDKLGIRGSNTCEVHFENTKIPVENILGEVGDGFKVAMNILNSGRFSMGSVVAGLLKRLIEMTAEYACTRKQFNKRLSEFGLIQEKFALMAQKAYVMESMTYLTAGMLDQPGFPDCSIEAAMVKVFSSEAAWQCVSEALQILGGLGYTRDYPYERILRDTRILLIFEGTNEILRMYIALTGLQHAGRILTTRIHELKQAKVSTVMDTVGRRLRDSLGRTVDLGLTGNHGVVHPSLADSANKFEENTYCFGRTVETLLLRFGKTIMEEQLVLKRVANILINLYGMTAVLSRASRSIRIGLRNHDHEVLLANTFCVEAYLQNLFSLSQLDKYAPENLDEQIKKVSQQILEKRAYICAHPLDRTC
# T2: ACAD9WT (res. 38-621) (human, UniProt Q9H845 38-621)
# T2 sequence: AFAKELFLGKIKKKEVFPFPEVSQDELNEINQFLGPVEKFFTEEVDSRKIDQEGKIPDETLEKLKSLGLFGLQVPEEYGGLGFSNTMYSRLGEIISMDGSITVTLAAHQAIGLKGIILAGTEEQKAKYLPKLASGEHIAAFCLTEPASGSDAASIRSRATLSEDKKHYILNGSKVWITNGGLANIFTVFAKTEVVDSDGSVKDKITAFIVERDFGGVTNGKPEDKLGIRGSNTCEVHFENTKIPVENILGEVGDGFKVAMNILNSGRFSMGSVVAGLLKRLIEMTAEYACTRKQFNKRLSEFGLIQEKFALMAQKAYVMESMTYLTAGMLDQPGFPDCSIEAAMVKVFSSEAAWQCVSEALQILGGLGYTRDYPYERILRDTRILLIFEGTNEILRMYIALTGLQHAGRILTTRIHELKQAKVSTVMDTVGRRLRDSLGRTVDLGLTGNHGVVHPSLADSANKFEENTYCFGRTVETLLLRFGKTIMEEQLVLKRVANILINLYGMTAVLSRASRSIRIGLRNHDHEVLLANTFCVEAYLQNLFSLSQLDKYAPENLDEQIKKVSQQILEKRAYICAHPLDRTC
# T3: ACAD9_(A184S/SR194TS) (human, UniProt Q9H845 38-621, A184S | SR194TS)
# T3 sequence: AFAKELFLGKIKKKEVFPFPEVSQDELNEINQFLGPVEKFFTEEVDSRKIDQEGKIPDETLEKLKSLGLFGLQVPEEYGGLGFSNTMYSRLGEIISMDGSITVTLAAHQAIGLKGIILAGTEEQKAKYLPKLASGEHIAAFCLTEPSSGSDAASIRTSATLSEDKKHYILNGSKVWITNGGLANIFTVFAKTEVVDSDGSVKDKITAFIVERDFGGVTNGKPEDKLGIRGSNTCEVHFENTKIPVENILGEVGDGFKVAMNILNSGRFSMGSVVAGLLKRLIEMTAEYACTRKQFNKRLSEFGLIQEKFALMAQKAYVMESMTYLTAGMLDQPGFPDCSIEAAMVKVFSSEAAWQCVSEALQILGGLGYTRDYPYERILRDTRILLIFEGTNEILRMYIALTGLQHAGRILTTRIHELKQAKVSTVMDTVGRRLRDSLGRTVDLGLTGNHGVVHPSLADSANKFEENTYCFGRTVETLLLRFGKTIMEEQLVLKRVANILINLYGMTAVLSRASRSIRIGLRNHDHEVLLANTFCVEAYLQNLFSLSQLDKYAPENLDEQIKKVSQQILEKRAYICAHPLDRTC
# Assays:
# [1] = biological target: T1, ACAD9_(S191A); test: ITC
# [2] = biological target: T2, ACAD9WT (res. 38-621); test: ITC
# [3] = biological target: T3, ACAD9_(A184S/SR194TS); test: mass photometry
# [4] = biological target: T2, ACAD9WT (res. 38-621); test: mass photometry
# [5] = biological target: T2, ACAD9WT (res. 38-621); test: cryo-EM structure
binder,measurement,setting,value
ECSIT_(CTER) (residues 221-431) (domain or fragment) QDPVELAMFGLRHMEPDLSARVTIYQVPLPKDSTGAADPPQPHIVGIQSPDQQAALARHNPARPVFVEGPFSLWLRNKCVYYHILRADLLPPEEREVEETPEEWNLYYPMQLDLEYVRSGWDNYEFDINEVEEGPVFAMCMAGAHDQATMAKWIQGLQETNPTLAQIPVVFRLAGSTRELQTSSAGLEEPPLPEDHQEEDDNLQRQQQGQS,Kd,[1],3.93 µM
same,Kd,[2],1.45 µM
same,binding result,[3],binds
same,stoichiometry N,[4],2 ECSIT_(CTER) monomers per ACAD9 dimer
same,stoichiometry N,[5],1 ECSIT_(CTER) per ACAD9 protomer
